Experimental data published in article PMC8346469.

Target: homo-oligomeric archaeal chaperonin from Methanococcus maripaludis (MmCpn) (Methanococcus maripaludis)
Experiment: cryo-EM structure; MmCpn 4 uM mixed on ice with 32 uM ATP (1 hexadecamer to 8 ATP), frozen immediately; single-particle reconstruction with D8 symmetry (also C1), 3.9 Å; focused classification of rings and subunits

Substance: homo-oligomeric archaeal chaperonin from Methanococcus maripaludis (MmCpn) (natural protein)
- stoichiometry N: 16 subunits
